2 substances from patent US20210277453 can be followed below.

What all share (assay): cell_activity
Data set [1] concerns TlpA (Salmonella typhimurium). As to conditions: thermal derepression of GFP in E. coli, 31.4 to 44.6 C.
Data set [2] has as its system TlpA36 (Salmonella typhimurium). The following applies: thermal derepression of GFP in E. coli, 31.4 to 44.6 C.
Data set [3] concerns TlpA39 (Salmonella typhimurium). The following applies: thermal derepression of GFP in E. coli, 31.4 to 44.6 C.
In data set [4] the target is TcI (cI857, A67T) (bacteriophage lambda) (UniProt P03034). The following applies: thermal derepression of GFP in E. coli, 34.2 to 40 C; text gives >1,432.
The target of data set [5] is TcI38 (bacteriophage lambda) (UniProt P03034). As to conditions: thermal derepression of GFP in E. coli, 32.4 to 40 C.
In data set [6] the target is TcI42 (bacteriophage lambda) (UniProt P03034). As to conditions: thermal derepression of GFP in E. coli, 32.4 to 45.7 C.

Consider TlpA operator/promoter, 52 bp, for which the activity in data set [1] was 355 fold; in data set [2], 370 fold; in data set [3], 1520 fold.
Take tandem pR/pL operator/promoter: the values for the activity in data set [4], in data set [5] and in data set [6] were 1430 fold, 1030 fold and 1690 fold, respectively.
